Laboratory results reported in the supplement of paper PMC10065799, “High-throughput profiling of sequence recognition by tyrosine kinases and SH2 domains using bacterial peptide display” (eLife, 2023).

Tests used:
SHP2-C SH2 = experiment: SH2 binding enrichment of the phosphorylated peptide, bacterial display (enrichment ratio); higher = better substrate or ligand; peptides without Tyr show the background
Grb2 SH2 = Grb2 SH2 (UniProt P62993); experiment: as above
c-Src SH2 = experiment: as above
AncSZ = experiment: phosphorylation enrichment, bacterial display (enrichment ratio); higher = better substrate or ligand; peptides without Tyr show the background
c-Src = experiment: as above
FGFR3 = FGFR3 (UniProt P22607); experiment: as above
FGFR3, sequence (P22607 whole entry, looked up): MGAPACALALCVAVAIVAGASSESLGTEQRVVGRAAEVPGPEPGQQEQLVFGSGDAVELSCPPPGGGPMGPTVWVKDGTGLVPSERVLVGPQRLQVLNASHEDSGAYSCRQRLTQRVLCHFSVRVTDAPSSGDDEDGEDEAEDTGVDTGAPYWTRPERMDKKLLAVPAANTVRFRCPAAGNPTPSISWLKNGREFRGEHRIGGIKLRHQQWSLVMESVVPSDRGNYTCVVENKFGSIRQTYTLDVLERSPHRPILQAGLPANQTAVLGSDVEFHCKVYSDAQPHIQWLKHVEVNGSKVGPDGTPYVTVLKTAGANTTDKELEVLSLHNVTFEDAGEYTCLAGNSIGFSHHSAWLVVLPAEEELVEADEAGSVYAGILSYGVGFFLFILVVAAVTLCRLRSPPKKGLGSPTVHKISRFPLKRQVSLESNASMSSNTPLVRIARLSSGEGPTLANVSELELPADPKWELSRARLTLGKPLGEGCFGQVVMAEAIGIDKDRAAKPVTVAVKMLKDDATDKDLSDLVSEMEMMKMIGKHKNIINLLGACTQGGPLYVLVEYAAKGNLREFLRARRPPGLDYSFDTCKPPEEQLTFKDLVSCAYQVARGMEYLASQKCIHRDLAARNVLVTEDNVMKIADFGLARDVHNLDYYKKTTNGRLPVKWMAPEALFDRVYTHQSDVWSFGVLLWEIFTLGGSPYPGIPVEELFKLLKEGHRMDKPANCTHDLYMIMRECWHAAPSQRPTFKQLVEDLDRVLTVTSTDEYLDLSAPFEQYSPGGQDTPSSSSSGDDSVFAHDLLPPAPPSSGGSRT

EPHB1 = EPHB1 (UniProt P54762); experiment: as above
EPHB2 = EPHB2 (UniProt P29323); experiment: as above
Hck = Hck (UniProt P08631); experiment: as above
Hck, sequence (P08631 whole entry, looked up): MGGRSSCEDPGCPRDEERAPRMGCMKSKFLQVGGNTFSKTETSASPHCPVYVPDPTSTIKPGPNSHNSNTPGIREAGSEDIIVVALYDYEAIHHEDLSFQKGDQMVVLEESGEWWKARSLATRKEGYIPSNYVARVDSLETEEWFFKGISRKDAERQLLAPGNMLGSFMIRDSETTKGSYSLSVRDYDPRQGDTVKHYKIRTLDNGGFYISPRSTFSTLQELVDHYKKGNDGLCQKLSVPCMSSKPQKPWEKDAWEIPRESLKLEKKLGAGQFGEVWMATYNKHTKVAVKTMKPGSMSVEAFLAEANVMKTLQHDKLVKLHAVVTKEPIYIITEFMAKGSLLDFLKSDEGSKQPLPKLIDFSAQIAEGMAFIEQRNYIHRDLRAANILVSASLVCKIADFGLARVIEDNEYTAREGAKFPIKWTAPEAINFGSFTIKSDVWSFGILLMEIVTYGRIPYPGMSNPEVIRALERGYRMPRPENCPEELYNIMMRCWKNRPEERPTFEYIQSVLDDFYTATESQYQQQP

MERTK = MERTK (UniProt Q12866); experiment: as above
MERTK, sequence (Q12866 whole entry, looked up): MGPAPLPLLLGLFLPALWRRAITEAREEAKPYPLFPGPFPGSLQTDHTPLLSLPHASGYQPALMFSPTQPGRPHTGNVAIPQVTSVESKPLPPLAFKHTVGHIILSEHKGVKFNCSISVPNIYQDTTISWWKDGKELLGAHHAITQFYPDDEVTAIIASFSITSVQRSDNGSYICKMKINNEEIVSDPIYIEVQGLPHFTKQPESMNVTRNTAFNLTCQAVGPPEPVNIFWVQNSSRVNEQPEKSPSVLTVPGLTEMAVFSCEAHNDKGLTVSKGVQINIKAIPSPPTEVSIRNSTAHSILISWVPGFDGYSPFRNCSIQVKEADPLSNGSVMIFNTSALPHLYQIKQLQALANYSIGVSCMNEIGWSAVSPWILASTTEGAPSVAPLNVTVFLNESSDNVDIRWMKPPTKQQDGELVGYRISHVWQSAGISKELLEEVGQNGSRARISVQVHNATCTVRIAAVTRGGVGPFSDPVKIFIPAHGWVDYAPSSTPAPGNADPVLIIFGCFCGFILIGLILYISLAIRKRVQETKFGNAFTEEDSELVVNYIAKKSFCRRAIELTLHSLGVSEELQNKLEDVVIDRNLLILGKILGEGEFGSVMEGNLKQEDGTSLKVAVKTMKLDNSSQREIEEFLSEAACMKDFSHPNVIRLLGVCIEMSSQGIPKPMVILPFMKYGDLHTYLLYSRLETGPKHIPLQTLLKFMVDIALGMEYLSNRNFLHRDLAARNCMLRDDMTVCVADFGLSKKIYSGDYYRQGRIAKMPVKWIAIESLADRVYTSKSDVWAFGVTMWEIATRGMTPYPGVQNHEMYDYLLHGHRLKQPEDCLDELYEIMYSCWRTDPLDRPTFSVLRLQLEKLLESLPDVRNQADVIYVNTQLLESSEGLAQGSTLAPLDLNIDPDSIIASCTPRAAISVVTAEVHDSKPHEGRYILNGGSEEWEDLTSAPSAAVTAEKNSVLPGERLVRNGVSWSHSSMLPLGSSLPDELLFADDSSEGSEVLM

Fyn = Fyn (UniProt P06241); experiment: as above
Fyn, sequence (P06241 whole entry, looked up): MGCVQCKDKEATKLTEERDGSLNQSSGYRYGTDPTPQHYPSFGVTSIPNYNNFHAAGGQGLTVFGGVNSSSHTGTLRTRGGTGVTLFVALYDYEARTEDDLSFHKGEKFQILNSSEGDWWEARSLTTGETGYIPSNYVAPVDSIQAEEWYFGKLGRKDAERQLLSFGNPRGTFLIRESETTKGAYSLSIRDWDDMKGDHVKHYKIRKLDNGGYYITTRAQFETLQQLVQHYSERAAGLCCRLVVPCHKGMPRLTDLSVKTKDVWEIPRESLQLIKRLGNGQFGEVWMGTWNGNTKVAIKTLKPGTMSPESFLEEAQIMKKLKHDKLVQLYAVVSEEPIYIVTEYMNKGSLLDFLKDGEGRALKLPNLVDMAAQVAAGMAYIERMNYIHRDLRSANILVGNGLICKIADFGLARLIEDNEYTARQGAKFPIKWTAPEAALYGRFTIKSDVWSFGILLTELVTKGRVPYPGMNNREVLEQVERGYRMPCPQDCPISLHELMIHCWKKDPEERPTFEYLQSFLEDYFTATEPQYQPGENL

Jak2 = Jak2 (UniProt O60674); experiment: as above
Jak2, sequence (O60674 whole entry, looked up): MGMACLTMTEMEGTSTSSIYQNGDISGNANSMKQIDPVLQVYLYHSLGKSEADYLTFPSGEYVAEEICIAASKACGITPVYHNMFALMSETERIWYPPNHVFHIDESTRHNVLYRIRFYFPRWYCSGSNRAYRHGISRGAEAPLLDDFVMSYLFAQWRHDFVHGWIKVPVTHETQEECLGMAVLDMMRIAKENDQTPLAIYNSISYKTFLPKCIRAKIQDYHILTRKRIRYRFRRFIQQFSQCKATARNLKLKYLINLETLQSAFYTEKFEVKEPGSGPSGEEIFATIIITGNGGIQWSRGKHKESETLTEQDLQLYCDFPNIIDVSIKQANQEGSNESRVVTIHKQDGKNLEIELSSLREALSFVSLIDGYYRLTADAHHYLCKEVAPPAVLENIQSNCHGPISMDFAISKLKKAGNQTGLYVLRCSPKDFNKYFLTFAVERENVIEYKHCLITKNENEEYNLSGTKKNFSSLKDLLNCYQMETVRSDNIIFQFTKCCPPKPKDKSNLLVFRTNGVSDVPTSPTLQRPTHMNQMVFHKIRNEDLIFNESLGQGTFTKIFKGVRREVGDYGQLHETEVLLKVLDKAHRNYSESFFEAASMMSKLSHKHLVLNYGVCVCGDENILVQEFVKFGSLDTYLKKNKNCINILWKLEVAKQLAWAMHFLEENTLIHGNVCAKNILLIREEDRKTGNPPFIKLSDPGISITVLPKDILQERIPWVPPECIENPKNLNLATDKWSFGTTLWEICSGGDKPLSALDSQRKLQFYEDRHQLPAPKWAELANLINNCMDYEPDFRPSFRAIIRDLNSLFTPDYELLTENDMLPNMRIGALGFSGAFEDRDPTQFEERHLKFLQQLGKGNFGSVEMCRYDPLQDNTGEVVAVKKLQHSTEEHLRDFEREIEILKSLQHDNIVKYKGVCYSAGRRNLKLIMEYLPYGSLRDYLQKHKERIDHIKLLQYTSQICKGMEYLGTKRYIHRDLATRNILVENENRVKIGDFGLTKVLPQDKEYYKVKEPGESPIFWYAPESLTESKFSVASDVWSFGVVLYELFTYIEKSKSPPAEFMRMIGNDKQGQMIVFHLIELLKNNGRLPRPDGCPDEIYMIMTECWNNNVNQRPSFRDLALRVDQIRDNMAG

Fes = Fes (UniProt P07332); experiment: as above
Fes, sequence (P07332 whole entry, looked up): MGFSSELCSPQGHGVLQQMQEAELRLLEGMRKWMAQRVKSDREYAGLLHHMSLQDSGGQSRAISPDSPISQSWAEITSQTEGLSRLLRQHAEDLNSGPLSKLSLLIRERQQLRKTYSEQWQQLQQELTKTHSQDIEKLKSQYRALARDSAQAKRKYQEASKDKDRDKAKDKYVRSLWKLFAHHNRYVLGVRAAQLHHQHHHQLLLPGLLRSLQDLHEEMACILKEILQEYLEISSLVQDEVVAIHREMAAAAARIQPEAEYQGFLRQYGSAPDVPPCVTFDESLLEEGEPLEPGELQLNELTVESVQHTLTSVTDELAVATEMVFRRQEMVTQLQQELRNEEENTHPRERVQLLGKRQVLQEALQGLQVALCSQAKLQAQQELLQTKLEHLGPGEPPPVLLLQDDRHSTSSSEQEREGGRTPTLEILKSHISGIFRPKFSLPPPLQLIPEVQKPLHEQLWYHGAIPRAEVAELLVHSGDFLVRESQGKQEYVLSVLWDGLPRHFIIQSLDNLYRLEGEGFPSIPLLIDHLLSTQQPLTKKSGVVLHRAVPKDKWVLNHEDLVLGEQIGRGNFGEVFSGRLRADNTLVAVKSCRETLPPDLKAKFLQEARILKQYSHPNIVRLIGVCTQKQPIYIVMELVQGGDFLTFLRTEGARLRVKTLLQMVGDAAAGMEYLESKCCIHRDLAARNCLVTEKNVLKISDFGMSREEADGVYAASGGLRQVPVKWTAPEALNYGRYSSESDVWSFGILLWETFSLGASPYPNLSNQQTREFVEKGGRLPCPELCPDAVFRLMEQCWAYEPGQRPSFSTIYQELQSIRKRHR

FGFR1 = FGFR1 (UniProt P11362); experiment: as above
Fer (mouse) = experiment: as above
c-Abl (mouse) = experiment: as above
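Throughout, for SH2 binding enrichment of the phosphorylated peptide, bacterial display: peptide library displayed on the E. coli surface as eCPX fusions, selected cells deep-sequenced, score is each peptide's frequency after selection divided by its frequency in the input.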
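Throughout, for phosphorylation enrichment, bacterial display: 11-residue human phosphosite peptides and single-mutation variants displayed on the E. coli surface, counted by deep sequencing, each peptide's frequency after selection divided by its frequency in the unselected input library; frequency after pTyr selection over input frequency; kinase dosed for 20-30% of maximal phosphorylation in three min.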

Row | Sequence | SH2 binding enrichment (SHP2-C SH2) | SH2 binding enrichment (Grb2 SH2) | SH2 binding enrichment (c-Src SH2) | phosphorylation enrichment (AncSZ) | phosphorylation enrichment (c-Src) | phosphorylation enrichment (FGFR3) | phosphorylation enrichment (EPHB1) | phosphorylation enrichment (EPHB2) | phosphorylation enrichment (Hck) | phosphorylation enrichment (MERTK) | phosphorylation enrichment (Fyn) | phosphorylation enrichment (Jak2) | phosphorylation enrichment (Fes) | phosphorylation enrichment (FGFR1) | phosphorylation enrichment (Fer (mouse)) | phosphorylation enrichment (c-Abl (mouse))
1 | FISLIYTNFEA [GSTP1_Y109_YF] | 0.872 | 1.1 | 0.524 | 1.56 | 4.67 | 1.12 | 1.11 | 0.793 | 2.56 | 3.6 | 4.29 | 1.3 | 1.55 | 0.683 | 2 | 2.21
2 | FKEIVYAVSSD [DCX_Y70_G67E] | 0.656 | 0.913 | 0.742 | 1.32 | 3.74 | 0.809 | 0.455 | 0.644 | 2.25 | 1.93 | 3.23 | 0.921 | 1.4 | 0.723 | 0.587 | 13.7
3 | FLAVEYHKPHI [IDS_Y225_G224E] | 0.653 | 1.32 | 0.925 | 0.779 | 0.387 | 0.515 | 0.417 | 0.459 | 0.38 | 0.302 | 0.337 | 1.05 | 0.814 | 0.393 | 0.354 | 1.6
4 | FLRKEYGGLNV [CBR3_Y81] | 0.432 | 0.667 | 0.435 | 0.584 | 0.334 | 0.437 | 0.4 | 0.519 | 0.404 | 0.385 | 0.45 | 0.615 | 0.618 | 0.393 | 0.375 | 0.412
5 | FPILNYKDIRK [CFAP221_Y798_M795I] | 0.696 | 0.76 | 0.447 | 0.546 | 0.49 | 0.464 | 0.478 | 0.487 | 0.391 | 0.453 | 0.368 | 0.745 | 0.666 | 0.431 | 0.449 | 0.486
6 | FPLAEYTEVKT [ALDH1A3_Y497_A493P_YF] | 0.841 | 0.884 | 1.87 | 1.34 | 0.528 | 0.82 | 0.685 | 0.575 | 0.54 | 0.4 | 0.502 | 1.01 | 0.968 | 0.671 | 0.516 | 0.709
7 | FPRAWYRRSIA [KIAA1109_Y4272] | 0.339 | 0.801 | 0.462 | 0.693 | 0.477 | 0.381 | 0.394 | 0.468 | 0.413 | 0.473 | 0.405 | 0.689 | 0.55 | 0.394 | 0.473 | 0.552
8 | FPSLPYSPVSS [CAMKK2_Y128_C123Y_YF] | 0.863 | 0.857 | 0.672 | 0.789 | 0.457 | 0.592 | 0.452 | 0.445 | 0.59 | 0.489 | 0.479 | 0.526 | 0.707 | 0.539 | 2.1 | 0.507
9 | FQLPFYNMVPS [BMPR1A_Y458_YF] | 0.652 | 0.952 | 1.97 | 0.788 | 1.06 | 0.936 | 0.65 | 0.773 | 1.07 | 2.69 | 1.05 | 0.666 | 0.811 | 1.21 | 1.45 | 0.582
10 | FRNSLYAPDFS [FAM92A_Y226_YF] | 0.736 | 0.674 | 0.511 | 0.755 | 1.25 | 0.743 | 2.04 | 1.35 | 1.23 | 8.67 | 1.02 | 0.812 | 0.899 | 0.891 | 0.911 | 0.563
11 | FRPPFYHRDCM [HGD_Y334_N337D_YF] | 1.06 | 1.03 | 1.02 | 0.895 | 0.477 | 0.724 | 0.611 | 0.659 | 0.507 | 0.471 | 0.459 | 0.942 | 1.1 | 0.558 | 0.577 | 0.735
12 | FSQQTYFRVSN [ABCD1_Y180_YF] | 1.16 | 0.887 | 1.09 | 0.902 | 0.931 | 1.19 | 0.654 | 0.564 | 0.749 | 0.41 | 0.435 | 3.23 | 0.723 | 1.23 | 0.415 | 0.625
13 | FTYDPYSEEDP [IL2RB_Y387] | 0.694 | 0.851 | 0.555 | 1.05 | 1.46 | 0.822 | 0.564 | 0.581 | 1.01 | 0.389 | 1.28 | 0.957 | 1.15 | 0.503 | 0.475 | 0.654
14 | GAPATYEGDAR [CACNA1A_Y1013] | 0.669 | 0.893 | 0.649 | 0.58 | 0.368 | 0.51 | 0.354 | 0.499 | 0.467 | 0.345 | 0.388 | 0.497 | 0.666 | 0.543 | 0.565 | 0.397
15 | GAVGHYVLAER [HFE_Y342_M339V] | 0.851 | 0.634 | 2.88 | 0.865 | 0.503 | 1.23 | 0.395 | 0.415 | 0.454 | 0.573 | 0.47 | 0.453 | 0.711 | 0.449 | 0.363 | 0.46
16 | GDKENYGLPQP [BUB1_Y538_N534D] | 0.742 | 0.866 | 0.518 | 0.873 | 0.433 | 0.567 | 0.509 | 0.794 | 0.469 | 0.432 | 0.461 | 0.715 | 0.859 | 0.452 | 0.419 | 0.632
17 | GEDEPYSEPYA [APBA1_Y183] | 0.742 | 0.903 | 0.582 | 1.35 | 0.551 | 0.756 | 0.542 | 0.673 | 0.477 | 0.531 | 0.55 | 1.15 | 1.19 | 0.516 | 0.618 | 0.845
18 | GEVLVYAEDPA [FLNA_Y319_V320A] | 1 | 0.874 | 0.549 | 1.21 | 0.553 | 0.704 | 0.607 | 0.53 | 0.543 | 0.408 | 0.593 | 0.814 | 1.05 | 0.496 | 0.385 | 0.496
19 | GGFNNYGFGND [HNRNPH3_Y159_YF] | 0.697 | 0.875 | 0.467 | 0.654 | 0.431 | 0.611 | 0.733 | 0.902 | 0.437 | 0.397 | 0.465 | 0.627 | 0.841 | 0.514 | 0.463 | 0.548
20 | GGFNNYGFGSD [HNRNPH3_Y159_N163S_YF] | 0.744 | 0.753 | 0.47 | 0.656 | 0.426 | 0.533 | 0.7 | 0.812 | 0.454 | 0.474 | 0.458 | 0.68 | 0.762 | 0.48 | 0.39 | 0.575
21 | GGGGGYNRSSG [FUS_Y232] | 0.503 | 0.682 | 0.34 | 0.478 | 0.358 | 0.386 | 0.57 | 0.271 | 0.419 | 0.435 | 0.371 | 0.503 | 0.503 | 0.304 | 0.328 | 0.574

Second part, led by results:

Row | SH2 binding enrichment (SHP2-C SH2) | SH2 binding enrichment (Grb2 SH2) | SH2 binding enrichment (c-Src SH2) | Sequence | phosphorylation enrichment (AncSZ) | phosphorylation enrichment (c-Src) | phosphorylation enrichment (FGFR3) | phosphorylation enrichment (EPHB1) | phosphorylation enrichment (EPHB2) | phosphorylation enrichment (Hck) | phosphorylation enrichment (MERTK) | phosphorylation enrichment (Fyn) | phosphorylation enrichment (Jak2) | phosphorylation enrichment (Fes) | phosphorylation enrichment (FGFR1) | phosphorylation enrichment (Fer (mouse)) | phosphorylation enrichment (c-Abl (mouse))
22 | 0.571 | 1.31 | 0.555 | FIGVTYKNEED [PDGFRA_Y993_YF] | 1.02 | 0.491 | 0.629 | 0.565 | 0.484 | 0.451 | 0.336 | 0.432 | 0.92 | 1.11 | 0.584 | 0.49 | 0.649
23 | 1.93 | 2.05 | 1.38 | FLLTVYSIFSK [SGCE_Y38] | 1.15 | 3.17 | 0.647 | 0.643 | 0.589 | 2.3 | 1.17 | 2.59 | 1.1 | 1.05 | 0.496 | 0.594 | 0.899
24 | 0.913 | 1 | 0.479 | FQKDVYNIPPS [NEDD9_Y177_D178N_YF] | 0.613 | 2.21 | 0.468 | 0.437 | 0.411 | 1.31 | 0.883 | 2.54 | 1.75 | 0.572 | 0.47 | 0.371 | 0.525
25 | 0.643 | 0.847 | 0.413 | FQKNSYSEELR [LMNA_Y211_I210S] | 0.626 | 0.452 | 0.499 | 0.363 | 0.342 | 0.319 | 0.425 | 0.456 | 0.63 | 0.686 | 0.401 | 0.365 | 0.544
26 | 0.679 | 0.813 | 0.479 | FQRLRYIKQLG [SAMHD1_Y146] | 0.8 | 0.473 | 0.509 | 0.483 | 0.592 | 0.454 | 0.472 | 0.399 | 0.652 | 0.898 | 0.42 | 0.42 | 0.617
27 | 0.595 | 0.882 | 7.24 | FRGFSYDDIPD [TMEM230_Y112_YF] | 1.35 | 0.485 | 0.737 | 0.739 | 0.71 | 0.609 | 0.565 | 0.438 | 1.39 | 1.44 | 0.474 | 0.405 | 0.895
28 | 0.933 | 1.1 | 0.762 | FSAPNYCYRCG [PPP2CA_Y265] | 0.656 | 0.382 | 0.45 | 0.498 | 0.455 | 0.414 | 0.423 | 0.458 | 0.501 | 0.564 | 0.446 | 0.327 | 0.452
29 | 1.34 | 1.46 | 1.54 | FSCLPCGRLAY [SLC52A2_Y305_Y305C] | 0.832 | 0.45 | 0.54 | 0.431 | 0.485 | 0.431 | 0.688 | 0.425 | 0.724 | 0.772 | 0.481 | 0.351 | 0.584
30 | 0.598 | 0.763 | 0.41 | FSKDIYKRVTG [PANK2_Y405_N404I_YF] | 0.516 | 0.398 | 0.413 | 0.218 | 0.382 | 0.423 | 0.334 | 0.444 | 0.407 | 0.58 | 0.431 | 0.355 | 0.529
31 | 0.644 | 0.725 | 0.379 | GEEIKYTLWLS [OTC_Y55_M56T] | 1.35 | 0.443 | 0.882 | 0.704 | 0.605 | 0.529 | 0.512 | 0.418 | 1.21 | 1.4 | 0.538 | 0.712 | 0.873
32 | 0.748 | 0.864 | 0.687 | GEETDYTPVWC [UROD_Y30] | 1.62 | 0.552 | 0.92 | 0.587 | 0.791 | 0.556 | 0.468 | 0.535 | 1.04 | 1.43 | 0.655 | 1.02 | 0.785
33 | 0.641 | 0.866 | 0.487 | GEPLSHTRFSL [TFRC_Y20_Y20H] | 0.599 | 0.456 | 0.435 | 0.449 | 0.36 | 0.478 | 0.424 | 0.398 | 0.742 | 0.828 | 0.424 | 0.448 | 0.637
